This passage reports tumor growth inhibition (TGI) rate in TfR1-positive GC-PDX mouse models treated with HFn-Dox (against 41.6% for free Dox) results from article PMC7002446.

This assay deals with transferrin receptor 1 (TfR1) (human (endogenous in gastric cancer patient tissue and human GC cell lines)) (UniProt P02786).
Sequence of transferrin receptor 1 (TfR1) (human (endogenous in gastric cancer patient tissue and human GC cell lines)) (P02786 whole entry): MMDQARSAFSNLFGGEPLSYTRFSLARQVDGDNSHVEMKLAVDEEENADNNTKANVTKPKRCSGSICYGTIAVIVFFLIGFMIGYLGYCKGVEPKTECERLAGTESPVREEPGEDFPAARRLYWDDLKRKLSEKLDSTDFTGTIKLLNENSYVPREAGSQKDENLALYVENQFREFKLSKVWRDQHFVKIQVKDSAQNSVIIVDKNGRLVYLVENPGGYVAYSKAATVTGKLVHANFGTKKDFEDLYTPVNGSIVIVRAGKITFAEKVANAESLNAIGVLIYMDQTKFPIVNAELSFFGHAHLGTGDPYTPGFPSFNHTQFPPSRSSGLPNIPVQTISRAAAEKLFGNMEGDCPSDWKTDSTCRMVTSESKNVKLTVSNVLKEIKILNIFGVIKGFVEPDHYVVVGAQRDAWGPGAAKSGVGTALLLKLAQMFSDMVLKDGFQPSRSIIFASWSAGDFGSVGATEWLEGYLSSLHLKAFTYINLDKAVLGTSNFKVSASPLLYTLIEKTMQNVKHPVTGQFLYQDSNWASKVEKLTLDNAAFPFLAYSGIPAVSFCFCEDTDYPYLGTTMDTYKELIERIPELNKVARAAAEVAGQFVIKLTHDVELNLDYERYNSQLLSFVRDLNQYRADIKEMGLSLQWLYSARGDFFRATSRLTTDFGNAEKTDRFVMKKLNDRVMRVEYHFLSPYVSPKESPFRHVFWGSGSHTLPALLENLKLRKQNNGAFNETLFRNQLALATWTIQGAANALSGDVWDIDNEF

Sequence of doxorubicin-loaded HFn nanocarrier (HFn-Dox) (P02794 whole entry): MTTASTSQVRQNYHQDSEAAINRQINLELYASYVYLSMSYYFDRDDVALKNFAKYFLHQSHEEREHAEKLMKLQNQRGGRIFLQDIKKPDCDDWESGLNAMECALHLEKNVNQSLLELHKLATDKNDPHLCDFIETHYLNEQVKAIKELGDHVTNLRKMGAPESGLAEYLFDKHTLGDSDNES

Regarding “doxorubicin-loaded HFn nanocarrier (HFn-Dox) (from UniProt P02794 1-183) (natural protein)”, the tumor growth inhibition (TGI) rate in TfR1-positive GC-PDX mouse models treated with HFn-Dox (against 41.6% for free Dox) turned out to be 91.1%.
